# Assay results published in article PMC7023979.
# Target: SIVrcm integrase A119D (simian immunodeficiency virus from red-capped mangabeys (SIVrcm))
# Experiment: cryo-EM structure
substance,measurement,value
SIVrcm integrase A119D (enzyme),stoichiometry N,4
